Source: patent EP2014310A2 (Dyax Corporation, dated 2009)
Read-outs that look alike come from different tables or passages of the source.

Columns and labels:
[1] = target: T1, human KDR-Fc fusion (R&D Systems #357-KD-050) (human, UniProt P35968 20-764); test: phage binding screen on KDR-Fc; class legend in paragraph 246
T1 construct: bought

[2] = target: T1, human KDR-Fc fusion (R&D Systems …); test: as above; remark: listed apart in the source

T1 sequence (P35968 20-764): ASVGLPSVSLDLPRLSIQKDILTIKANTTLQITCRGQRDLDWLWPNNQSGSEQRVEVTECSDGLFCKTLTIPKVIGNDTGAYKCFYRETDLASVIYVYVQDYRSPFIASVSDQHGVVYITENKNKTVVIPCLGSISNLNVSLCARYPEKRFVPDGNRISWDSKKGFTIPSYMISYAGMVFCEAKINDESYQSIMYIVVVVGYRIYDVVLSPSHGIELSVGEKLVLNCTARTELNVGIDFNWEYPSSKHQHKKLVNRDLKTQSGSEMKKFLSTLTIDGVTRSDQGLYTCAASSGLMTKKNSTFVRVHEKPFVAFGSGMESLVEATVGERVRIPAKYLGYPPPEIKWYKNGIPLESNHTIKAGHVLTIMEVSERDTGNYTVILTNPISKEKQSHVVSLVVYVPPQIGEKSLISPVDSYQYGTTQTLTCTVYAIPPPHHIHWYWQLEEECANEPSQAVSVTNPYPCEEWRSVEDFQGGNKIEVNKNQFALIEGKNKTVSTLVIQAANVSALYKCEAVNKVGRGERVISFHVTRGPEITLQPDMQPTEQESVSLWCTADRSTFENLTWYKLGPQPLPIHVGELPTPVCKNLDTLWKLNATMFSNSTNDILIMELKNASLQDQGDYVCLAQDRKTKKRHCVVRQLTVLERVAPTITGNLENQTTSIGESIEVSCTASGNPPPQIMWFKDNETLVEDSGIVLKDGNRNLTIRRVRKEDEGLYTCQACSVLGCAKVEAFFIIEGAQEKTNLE

Binder | binding result [1] | binding result [2]
SRVCWEYSWGGEVCYRV [phage isolate SRVCWEYSWGGEVCYRV] | binds | 
WIQCDMETGLCTHG [phage isolate WIQCDMETGLCTHG] |  | binds
YGVCWEYSWGGEVCLRF [phage isolate YGVCWEYSWGGEVCLRF] | binds | 
TITCWMDTGHCMHE [phage isolate TITCWMDTGHCMHE] |  | binds
WEWCPIDAWECIML [phage isolate WEWCPIDAWECIML] |  | binds
WIECHYKTGHCIHS [phage isolate WIECHYKTGHCIHS] |  | binds
WVQCASDTGKCIMG [phage isolate WVQCASDTGKCIMG] |  | binds
WYWCHHIGMYCDGF [phage isolate WYWCHHIGMYCDGF] |  | binds
GITCYSDTGKCFSF [phage isolate GITCYSDTGKCFSF] |  | binds
RNWCEEDWYYCFIT [phage isolate RNWCEEDWYYCFIT] |  | binds
VNWCEEDWYYCWIT [phage isolate VNWCEEDWYYCWIT] |  | binds
SNWCEEDWYYCYIT [phage isolate SNWCEEDWYYCYIT] |  | binds
TGNCQEDWYYCWYF [phage isolate TGNCQEDWYYCWYF] |  | binds
LNICKEDWYYCFLL [phage isolate LNICKEDWYYCFLL] |  | binds
LVMCISPEGYCYEI [phage isolate LVMCISPEGYCYEI] |  | binds
WIICDGNLGWCWEG [phage isolate WIICDGNLGWCWEG] |  | binds
HWECYSDTGKCWFF [phage isolate HWECYSDTGKCWFF] |  | binds
KELCEDDWYYCYLM [phage isolate KELCEDDWYYCYLM] |  | binds
PDWCAADWYYCYIT [phage isolate PDWCAADWYYCYIT] |  | binds
FGECWEYFWGGEFCLRV [phage isolate FGECWEYFWGGEFCLRV] | binds | 
YPWCHELSDSVTRFCVPW [phage isolate YPWCHELSDSVTRFCVPW] | binds | 
YPWCHEHSDSVTRFCVPW [phage isolate YPWCHEHSDSVTRFCVPW] | binds | 
AVTCWALTGHCVEE [phage isolate AVTCWALTGHCVEE] |  | binds
PNTCETFDLYCWWI [phage isolate PNTCETFDLYCWWI] |  | binds
PDWCEEDWYYCWIT [phage isolate PDWCEEDWYYCWIT] |  | binds
GITCYSATGKCQMW [phage isolate GITCYSATGKCQMW] |  | binds

Binder | binding result [1] | binding result [2]
WLECYAEFGHCYNF [phage isolate WLECYAEFGHCYNF] |  | binds
WLECYTEFGHCYNF [phage isolate WLECYTEFGHCYNF] |  | binds
DFNCKMIDGFCLLK [phage isolate DFNCKMIDGFCLLK] |  | binds
GVWCDMVTGWCYHG [phage isolate GVWCDMVTGWCYHG] |  | binds
PTWCEDDWYYCWLF [phage isolate PTWCEDDWYYCWLF] |  | binds
YVDCYYDTGRCYHQ [phage isolate YVDCYYDTGRCYHQ] |  | binds
WIQCDRKAGRCSRG [phage isolate WIQCDRKAGRCSRG] |  | binds
SRVCWEDSWGGEVCFRY [phage isolate SRVCWEDSWGGEVCFRY] | binds | 
GINCYPATGKCQMG [phage isolate GINCYPATGKCQMG] |  | binds
PEWCEVDWYYCWLL [phage isolate PEWCEVDWYYCWLL] |  | binds
WTECHYATGKCHSF [phage isolate WTECHYATGKCHSF] |  | binds
LIECYAHTGLCFDF [phage isolate LIECYAHTGLCFDF] |  | binds
WIECYHPDGICYHF [phage isolate WIECYHPDGICYHF] |  | binds
VWECAKTFPFCHWF [phage isolate VWECAKTFPFCHWF] |  | binds
WVECFMDTGACYTF [phage isolate WVECFMDTGACYTF] |  | binds
SVECFMDTGACYTF [phage isolate SVECFMDTGACYTF] |  | binds
WRICWESSWGGEVCIGH [phage isolate WRICWESSWGGEVCIGH] | binds | 
WVECWWKSGQCYEF [phage isolate WVECWWKSGQCYEF] |  | binds
WVECWWKYGQCYEF [phage isolate WVECWWKYGQCYEF] |  | binds
SKWCEQDWYYCWLL [phage isolate SKWCEQDWYYCWLL] |  | binds
HYECWYPEGKCYFY [phage isolate HYECWYPEGKCYFY] |  | binds
WIQCNSITGHCTSG [phage isolate WIQCNSITGHCTSG] |  | binds
HWWCAFQPQECEYW [phage isolate HWWCAFQPQECEYW] |  | binds
GVECYKHSGMCRSW [phage isolate GVECYKHSGMCRSW] |  | binds
GEQCSNLAVACCST [phage isolate GEQCSNLAVACCST] |  | binds
